Results as given in article PMC10556615 (Proceedings of the National Academy of Sciences of the …, 2023).

Biological target: T1, Arabidopsis TIR1 (Transport Inhibitor Response 1), coexpressed with AtASK1 (Arabidopsis, UniProt Q570C0 1-594; Q39255 1-160)
T1 construct: a TEV site stands between the tags and TIR1; ASK1 (AtASK1), Arabidopsis, coexpressed with TIR1; a TEV site stands between the tag and ASK1; that the sample is the TIR1-ASK1 complex is surmised from the coexpression; Cleavage with TEV is not mentioned; also called AtTIR1; His10-eGFP-FLAG-(TEV)-AtTIR1
T1 sequence (looked up) 1: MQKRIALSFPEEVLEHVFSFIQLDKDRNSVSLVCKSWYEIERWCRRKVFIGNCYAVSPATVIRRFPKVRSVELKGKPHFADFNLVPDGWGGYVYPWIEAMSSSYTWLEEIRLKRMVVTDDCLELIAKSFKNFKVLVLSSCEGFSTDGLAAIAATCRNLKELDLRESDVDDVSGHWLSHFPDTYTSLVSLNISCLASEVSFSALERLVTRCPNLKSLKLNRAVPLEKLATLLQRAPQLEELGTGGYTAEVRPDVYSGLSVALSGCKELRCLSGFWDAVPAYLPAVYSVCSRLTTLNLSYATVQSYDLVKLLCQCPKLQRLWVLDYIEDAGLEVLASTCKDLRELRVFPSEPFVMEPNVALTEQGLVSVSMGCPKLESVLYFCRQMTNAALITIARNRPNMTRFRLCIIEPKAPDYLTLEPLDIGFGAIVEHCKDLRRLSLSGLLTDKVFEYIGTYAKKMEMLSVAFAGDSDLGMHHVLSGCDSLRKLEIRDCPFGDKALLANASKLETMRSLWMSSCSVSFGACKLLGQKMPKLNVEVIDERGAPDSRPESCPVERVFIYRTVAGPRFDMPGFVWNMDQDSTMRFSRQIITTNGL
T1 sequence (looked up) 2: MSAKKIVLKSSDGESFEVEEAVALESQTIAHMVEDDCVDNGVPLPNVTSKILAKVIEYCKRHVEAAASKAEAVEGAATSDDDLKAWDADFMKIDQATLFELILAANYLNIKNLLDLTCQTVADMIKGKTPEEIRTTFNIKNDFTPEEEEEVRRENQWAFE
Experiment: NMR titration; 1H-15N HSQC of 15N-labeled AXR3 DI/DII with unlabeled TIR1 added, 1:3 ratio, 5 to 10 µM TIR1, 4 °C, 20 mM sodium phosphate pH 6.0, 150 mM NaCl, 3 mM EDTA, 10 mM DTT; loss of HN cross peak intensity; no auxin
Conditions: both partners purified

binding result: binds
B1: AXR3 DI/DII (N-terminal half of the Aux/IAA protein IAA17/AXR3, residues 1 to 101) (domain or fragment, UniProt P93830 1-101, looked up)
chain: MMGSVELNLRETELCLGLPGGDTVAPVTGNKRGFSETVDLKLNLNNEPANKEGSTTHDVVTFDSKEKSACPKDPAKPPAKAQVVGWPPVRSYRKNVMVSCQ
modifications: 15N isotopically labeled
notes: AXR3 (IAA17), Aux/IAA protein, domains I and II (DI/DII), residues 1 to 101, without the C-terminal PB1 domain; also called AXR3_(1-101); N-terminal half of AXR3; source: E. coli Rosetta DE3, minimal media with 15N ammonium chloride, purified (Co-NTA)
